Source: the supplement of paper PMC10065799, “High-throughput profiling of sequence recognition by tyrosine kinases and SH2 domains using bacterial peptide display” (eLife, 2023)

Key:
Grb2 SH2 = Grb2 SH2 (UniProt P62993); experiment: SH2 binding enrichment of the phosphorylated peptide, bacterial display (enrichment ratio); higher = better substrate or ligand; peptides without Tyr show the background
SHP2-C SH2 = experiment: as above
c-Src SH2 = experiment: as above
FGFR1 = FGFR1 (UniProt P11362); experiment: phosphorylation enrichment, bacterial display (enrichment ratio); higher = better substrate or ligand; peptides without Tyr show the background
Jak2 = Jak2 (UniProt O60674); experiment: as above
Jak2, sequence (O60674 whole entry, looked up): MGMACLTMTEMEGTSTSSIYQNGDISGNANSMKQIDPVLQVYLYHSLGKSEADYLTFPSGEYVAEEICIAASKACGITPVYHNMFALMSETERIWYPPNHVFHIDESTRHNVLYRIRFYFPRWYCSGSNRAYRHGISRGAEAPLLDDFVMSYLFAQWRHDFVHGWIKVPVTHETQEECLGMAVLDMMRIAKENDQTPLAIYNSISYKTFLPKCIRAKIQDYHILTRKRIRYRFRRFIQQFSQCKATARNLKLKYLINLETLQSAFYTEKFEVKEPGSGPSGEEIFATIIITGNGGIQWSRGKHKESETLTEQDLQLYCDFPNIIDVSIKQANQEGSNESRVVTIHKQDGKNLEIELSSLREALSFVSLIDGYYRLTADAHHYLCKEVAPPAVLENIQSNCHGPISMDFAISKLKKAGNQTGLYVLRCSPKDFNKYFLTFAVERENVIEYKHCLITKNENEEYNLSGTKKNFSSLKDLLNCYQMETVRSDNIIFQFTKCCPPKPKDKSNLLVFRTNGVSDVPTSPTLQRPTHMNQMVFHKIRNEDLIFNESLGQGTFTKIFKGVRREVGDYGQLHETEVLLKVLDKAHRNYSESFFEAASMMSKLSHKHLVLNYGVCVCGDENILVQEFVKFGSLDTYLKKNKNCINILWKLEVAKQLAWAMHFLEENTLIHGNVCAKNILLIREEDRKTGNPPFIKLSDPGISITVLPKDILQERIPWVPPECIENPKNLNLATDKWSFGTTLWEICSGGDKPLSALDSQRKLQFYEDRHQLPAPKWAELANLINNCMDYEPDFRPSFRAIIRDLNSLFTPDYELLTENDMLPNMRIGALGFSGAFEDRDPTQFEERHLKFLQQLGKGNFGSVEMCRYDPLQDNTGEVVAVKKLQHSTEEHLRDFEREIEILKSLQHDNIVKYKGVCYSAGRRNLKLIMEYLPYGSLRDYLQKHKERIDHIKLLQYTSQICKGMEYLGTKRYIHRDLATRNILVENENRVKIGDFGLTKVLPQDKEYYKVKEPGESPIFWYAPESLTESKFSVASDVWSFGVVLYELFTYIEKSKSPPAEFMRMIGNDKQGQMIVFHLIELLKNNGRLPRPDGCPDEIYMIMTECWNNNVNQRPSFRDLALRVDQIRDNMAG

MERTK = MERTK (UniProt Q12866); experiment: as above
MERTK, sequence (Q12866 whole entry, looked up): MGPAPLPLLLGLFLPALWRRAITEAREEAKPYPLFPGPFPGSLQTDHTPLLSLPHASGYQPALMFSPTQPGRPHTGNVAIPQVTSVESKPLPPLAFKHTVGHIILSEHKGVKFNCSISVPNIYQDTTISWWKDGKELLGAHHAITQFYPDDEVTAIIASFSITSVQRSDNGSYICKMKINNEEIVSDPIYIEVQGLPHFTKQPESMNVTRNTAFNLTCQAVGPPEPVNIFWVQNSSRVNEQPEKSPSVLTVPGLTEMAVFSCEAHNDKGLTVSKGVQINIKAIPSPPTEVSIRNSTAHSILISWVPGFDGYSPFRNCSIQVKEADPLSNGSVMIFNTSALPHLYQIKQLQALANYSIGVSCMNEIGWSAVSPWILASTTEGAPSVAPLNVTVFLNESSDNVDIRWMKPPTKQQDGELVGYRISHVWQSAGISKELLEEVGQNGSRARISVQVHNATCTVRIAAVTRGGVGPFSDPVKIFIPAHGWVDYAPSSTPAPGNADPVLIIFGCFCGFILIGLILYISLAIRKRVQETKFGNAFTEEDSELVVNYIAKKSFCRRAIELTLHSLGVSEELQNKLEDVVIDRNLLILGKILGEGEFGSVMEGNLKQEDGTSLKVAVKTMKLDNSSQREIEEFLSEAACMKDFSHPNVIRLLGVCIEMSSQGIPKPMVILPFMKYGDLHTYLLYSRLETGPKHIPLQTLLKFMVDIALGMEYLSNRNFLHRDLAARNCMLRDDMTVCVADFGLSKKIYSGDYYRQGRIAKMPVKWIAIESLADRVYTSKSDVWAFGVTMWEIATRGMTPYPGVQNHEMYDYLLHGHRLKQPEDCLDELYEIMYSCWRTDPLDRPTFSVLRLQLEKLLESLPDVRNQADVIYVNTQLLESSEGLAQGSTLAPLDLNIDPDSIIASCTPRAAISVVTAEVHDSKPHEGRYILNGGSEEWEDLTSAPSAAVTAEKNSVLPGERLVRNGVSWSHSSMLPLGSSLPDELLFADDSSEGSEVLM

Fer (mouse) = experiment: as above
EPHB1 = EPHB1 (UniProt P54762); experiment: as above
EPHB1, sequence (P54762 whole entry, looked up): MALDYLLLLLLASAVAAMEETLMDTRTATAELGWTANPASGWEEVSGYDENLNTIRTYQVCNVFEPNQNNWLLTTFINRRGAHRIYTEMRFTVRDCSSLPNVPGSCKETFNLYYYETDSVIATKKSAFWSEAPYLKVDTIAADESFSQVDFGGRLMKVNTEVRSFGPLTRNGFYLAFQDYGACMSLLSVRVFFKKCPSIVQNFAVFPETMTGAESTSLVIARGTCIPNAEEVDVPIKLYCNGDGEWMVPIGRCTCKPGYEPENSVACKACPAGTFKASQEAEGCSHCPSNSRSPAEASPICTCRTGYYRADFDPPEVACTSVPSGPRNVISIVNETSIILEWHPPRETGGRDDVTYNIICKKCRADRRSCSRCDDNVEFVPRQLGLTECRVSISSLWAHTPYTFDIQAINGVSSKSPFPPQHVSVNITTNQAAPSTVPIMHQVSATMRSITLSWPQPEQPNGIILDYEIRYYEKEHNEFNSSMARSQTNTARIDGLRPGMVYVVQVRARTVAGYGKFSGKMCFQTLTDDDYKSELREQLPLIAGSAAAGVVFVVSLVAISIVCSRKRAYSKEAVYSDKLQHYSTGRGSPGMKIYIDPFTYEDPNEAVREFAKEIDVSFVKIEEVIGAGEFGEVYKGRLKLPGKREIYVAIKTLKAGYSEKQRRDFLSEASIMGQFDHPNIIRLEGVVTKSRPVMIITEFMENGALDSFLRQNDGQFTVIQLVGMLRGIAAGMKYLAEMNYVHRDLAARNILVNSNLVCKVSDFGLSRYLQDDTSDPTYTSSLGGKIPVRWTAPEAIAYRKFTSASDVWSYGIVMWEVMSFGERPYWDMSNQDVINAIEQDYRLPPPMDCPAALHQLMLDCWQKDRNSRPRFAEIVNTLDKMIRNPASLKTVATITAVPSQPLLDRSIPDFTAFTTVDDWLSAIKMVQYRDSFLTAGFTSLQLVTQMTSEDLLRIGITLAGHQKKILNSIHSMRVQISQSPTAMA

c-Src = experiment: as above
AncSZ = experiment: as above
Fyn = Fyn (UniProt P06241); experiment: as above
Fyn, sequence (P06241 whole entry, looked up): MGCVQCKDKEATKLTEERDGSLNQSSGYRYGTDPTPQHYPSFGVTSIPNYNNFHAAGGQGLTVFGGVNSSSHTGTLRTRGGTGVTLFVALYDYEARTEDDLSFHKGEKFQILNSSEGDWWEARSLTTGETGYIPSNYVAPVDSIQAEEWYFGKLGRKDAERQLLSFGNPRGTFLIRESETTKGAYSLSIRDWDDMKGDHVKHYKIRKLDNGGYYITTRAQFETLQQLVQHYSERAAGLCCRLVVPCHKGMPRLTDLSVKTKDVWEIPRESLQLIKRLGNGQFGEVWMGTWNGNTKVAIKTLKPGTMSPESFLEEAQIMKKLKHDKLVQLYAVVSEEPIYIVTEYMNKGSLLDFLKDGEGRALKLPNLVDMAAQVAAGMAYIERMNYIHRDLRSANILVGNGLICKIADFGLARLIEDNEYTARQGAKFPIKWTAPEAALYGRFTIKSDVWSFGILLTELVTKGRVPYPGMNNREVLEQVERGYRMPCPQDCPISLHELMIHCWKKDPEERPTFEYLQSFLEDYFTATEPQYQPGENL

FGFR3 = FGFR3 (UniProt P22607); experiment: as above
c-Abl (mouse) = experiment: as above
Fes = Fes (UniProt P07332); experiment: as above
EPHB2 = EPHB2 (UniProt P29323); experiment: as above
EPHB2, sequence (P29323 whole entry, looked up): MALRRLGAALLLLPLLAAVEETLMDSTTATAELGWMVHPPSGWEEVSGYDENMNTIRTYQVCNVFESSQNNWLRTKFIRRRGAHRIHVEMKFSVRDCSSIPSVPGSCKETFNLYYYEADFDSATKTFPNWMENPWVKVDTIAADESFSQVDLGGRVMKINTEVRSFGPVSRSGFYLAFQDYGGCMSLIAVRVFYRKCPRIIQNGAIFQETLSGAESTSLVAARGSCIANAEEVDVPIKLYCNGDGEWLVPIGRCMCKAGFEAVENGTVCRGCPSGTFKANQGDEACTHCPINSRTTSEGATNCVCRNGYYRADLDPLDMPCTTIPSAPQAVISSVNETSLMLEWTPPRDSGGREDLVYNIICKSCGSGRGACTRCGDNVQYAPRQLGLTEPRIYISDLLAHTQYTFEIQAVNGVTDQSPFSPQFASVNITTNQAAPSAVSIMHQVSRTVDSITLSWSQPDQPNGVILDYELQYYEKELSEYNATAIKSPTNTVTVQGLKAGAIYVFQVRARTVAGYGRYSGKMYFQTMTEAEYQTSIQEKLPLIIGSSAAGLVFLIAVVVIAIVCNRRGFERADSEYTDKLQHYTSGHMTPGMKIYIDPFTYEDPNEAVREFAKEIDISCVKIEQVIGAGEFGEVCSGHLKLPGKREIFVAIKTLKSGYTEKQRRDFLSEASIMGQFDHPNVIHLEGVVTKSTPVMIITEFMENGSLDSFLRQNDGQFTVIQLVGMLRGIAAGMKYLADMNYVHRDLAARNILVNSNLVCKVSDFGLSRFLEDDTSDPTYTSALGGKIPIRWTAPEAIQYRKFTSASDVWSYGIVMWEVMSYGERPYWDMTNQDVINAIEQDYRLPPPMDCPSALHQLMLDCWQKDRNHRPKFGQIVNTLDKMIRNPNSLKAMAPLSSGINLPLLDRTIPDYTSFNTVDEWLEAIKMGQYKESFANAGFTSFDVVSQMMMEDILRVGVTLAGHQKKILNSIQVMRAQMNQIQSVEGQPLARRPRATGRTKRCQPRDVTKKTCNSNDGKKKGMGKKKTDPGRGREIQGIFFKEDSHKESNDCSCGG

Hck = Hck (UniProt P08631); experiment: as above
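Wherever SH2 binding enrichment of the phosphorylated peptide, bacterial display is given: peptide library displayed on the E. coli surface as eCPX fusions, selected cells deep-sequenced, score is each peptide's frequency after selection divided by its frequency in the input.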
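Wherever phosphorylation enrichment, bacterial display is given: 11-residue human phosphosite peptides and single-mutation variants displayed on the E. coli surface, counted by deep sequencing, each peptide's frequency after selection divided by its frequency in the unselected input library; frequency after pTyr selection over input frequency; kinase dosed for 20-30% of maximal phosphorylation in three min.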

Row | SH2 binding enrichment (Grb2 SH2) | SH2 binding enrichment (SHP2-C SH2) | SH2 binding enrichment (c-Src SH2) | Sequence | phosphorylation enrichment (FGFR1) | phosphorylation enrichment (Jak2) | phosphorylation enrichment (MERTK) | phosphorylation enrichment (Fer (mouse)) | phosphorylation enrichment (EPHB1) | phosphorylation enrichment (c-Src) | phosphorylation enrichment (AncSZ) | phosphorylation enrichment (Fyn) | phosphorylation enrichment (FGFR3) | phosphorylation enrichment (c-Abl (mouse)) | phosphorylation enrichment (Fes) | phosphorylation enrichment (EPHB2) | phosphorylation enrichment (Hck)
1 | 0.643 | 0.82 | 0.609 | DKATEYSQYMR [MAX_Y70_I71S] | 0.531 | 0.636 | 0.473 | 0.499 | 0.45 | 0.745 | 0.87 | 0.571 | 0.541 | 0.677 | 0.864 | 0.525 | 0.556
2 | 1.66 | 1.62 | 1.55 | FHLLPYTIRAM [PARS2_Y93_V95I_YF] | 0.547 | 0.708 | 0.373 | 0.454 | 0.504 | 1.02 | 0.825 | 0.5 | 0.533 | 0.621 | 0.972 | 0.588 | 0.541
3 | 0.951 | 3.73 | 10.6 | CTTTHYNYMCN [TP53_Y234_I232T] | 0.551 | 0.58 | 0.391 | 0.446 | 0.563 | 0.424 | 0.708 | 0.441 | 0.533 | 0.484 | 0.722 | 0.592 | 0.497
4 | 0.855 | 0.954 | 0.844 | RLPSGYGLAYR [DLK1_Y262] | 1.32 | 0.46 | 0.385 | 0.418 | 0.464 | 0.39 | 0.627 | 0.295 | 0.479 | 0.414 | 0.61 | 0.315 | 0.555
5 | 0.966 | 0.682 | 0.607 | GRQGIYTENER [GPR143_Y231] | 0.464 | 0.548 | 0.456 | 0.466 | 0.496 | 0.581 | 0.724 | 0.511 | 0.62 | 0.581 | 0.951 | 0.427 | 0.439
6 | 1.13 | 0.936 | 0.604 | DPFHVYIKNRV [KCNE3_Y95_YF] | 0.455 | 1.08 | 0.369 | 0.486 | 0.604 | 0.31 | 1.27 | 0.415 | 0.764 | 0.692 | 1.19 | 0.464 | 0.437
7 | 1.15 | 0.823 | 0.632 | NTGDFCDLFGG [PTPN11_Y63_Y63C_YF] | 0.511 | 0.969 | 0.486 | 0.487 | 0.584 | 0.413 | 1.01 | 0.499 | 0.653 | 0.655 | 1.11 | 0.555 | 0.578
8 | 0.58 | 0.373 | 0.468 | SGRRRYTIAAL [TTR_Y125_P122R] | 0.547 | 0.51 | 0.601 | 0.6 | 0.615 | 0.736 | 0.602 | 0.61 | 0.598 | 0.512 | 0.622 | 0.581 | 0.517
9 | 0.712 | 0.779 | 0.404 | IEELTYIIKQD [STX5_Y137] | 0.551 | 1.25 | 0.469 | 0.411 | 0.55 | 0.554 | 1.33 | 0.461 | 0.665 | 0.801 | 1.52 | 0.578 | 0.528
10 | 1.16 | 0.776 | 0.556 | LMLVLYGRIFL [HTR1A_Y215_R220L] | 0.851 | 1.28 | 0.651 | 0.745 | 1.11 | 0.778 | 1.11 | 0.433 | 0.968 | 0.996 | 1.93 | 0.692 | 0.654
11 | 0.875 | 0.656 | 0.493 | KVQVSYKGETK [HSPA1A_Y107] | 0.429 | 0.428 | 0.387 | 0.378 | 0.442 | 0.352 | 0.608 | 0.426 | 0.432 | 0.85 | 0.511 | 0.449 | 0.346
12 | 0.629 | 0.658 | 0.537 | ENAGFYFQVSA | 0.416 | 1.3 | 0.333 | 0.474 | 0.483 | 0.347 | 1.08 | 0.329 | 0.721 | 0.797 | 1.15 | 0.493 | 0.304
13 | 0.945 | 0.752 | 0.883 | QVKEQYQDVPM [PKP2_Y659_K654Q] | 0.835 | 1.12 | 0.565 | 0.86 | 0.555 | 0.573 | 1.15 | 0.65 | 0.914 | 2.19 | 1.98 | 0.762 | 0.701
14 | 0.756 | 0.796 | 0.659 | FADIAYIFRHG [PAH_Y166_N167I_YF] | 0.637 | 0.97 | 0.458 | 0.507 | 0.715 | 0.415 | 0.908 | 0.508 | 0.626 | 0.579 | 1.03 | 0.487 | 0.449
15 | 1.14 | 0.935 | 0.519 | LDAFIYDAAVL [GRIN2A_Y730] | 0.879 | 0.827 | 3.04 | 20.3 | 2.63 | 6.55 | 1.18 | 9.56 | 0.868 | 6.28 | 1.53 | 3 | 7.32
16 | 1.06 | 0.682 | 1.14 | HFVDEYDRTIE [KRAS_Y32_P34R] | 0.644 | 1.67 | 0.58 | 0.794 | 0.875 | 0.989 | 2.01 | 0.653 | 0.932 | 1.36 | 1.66 | 0.805 | 0.701
17 | 0.927 | 0.671 | 0.589 | EDGCIYPATIA [SMN1_Y109] | 0.546 | 1.1 | 0.545 | 0.513 | 0.744 | 0.539 | 1.07 | 0.587 | 0.727 | 0.87 | 1.37 | 0.562 | 0.577

Row | SH2 binding enrichment (Grb2 SH2) | SH2 binding enrichment (SHP2-C SH2) | SH2 binding enrichment (c-Src SH2) | Sequence | phosphorylation enrichment (FGFR1) | phosphorylation enrichment (Jak2) | phosphorylation enrichment (MERTK) | phosphorylation enrichment (Fer (mouse)) | phosphorylation enrichment (EPHB1) | phosphorylation enrichment (c-Src) | phosphorylation enrichment (AncSZ) | phosphorylation enrichment (Fyn) | phosphorylation enrichment (FGFR3) | phosphorylation enrichment (c-Abl (mouse)) | phosphorylation enrichment (Fes) | phosphorylation enrichment (EPHB2) | phosphorylation enrichment (Hck)
18 | 0.921 | 0.901 | 0.643 | RVLHNYLVWCV [ECEL1_Y400_R404C] | 0.773 | 1.42 | 0.631 | 0.647 | 1.02 | 0.561 | 1.25 | 0.535 | 1.02 | 0.933 | 1.5 | 0.752 | 0.611
19 | 0.746 | 0.558 | 0.525 | SSMSDYNPLEK [MYOC_Y479_I477S] | 0.506 | 0.756 | 0.425 | 0.558 | 0.501 | 0.439 | 0.87 | 0.47 | 0.581 | 0.657 | 0.876 | 0.515 | 0.525
20 | 0.793 | 0.416 | 0.518 | EQLGEYKFQNA [ALB_Y425] | 0.471 | 0.715 | 0.324 | 0.351 | 0.461 | 0.367 | 0.824 | 0.394 | 0.5 | 0.774 | 0.77 | 0.415 | 0.415
21 | 0.651 | 0.556 | 0.33 | EEVKAYLDFRE [CHAC2_Y78] | 0.584 | 1.35 | 0.524 | 0.651 | 0.652 | 0.59 | 1.2 | 0.605 | 0.865 | 0.867 | 1.44 | 0.765 | 0.601
22 | 0.719 | 0.614 | 0.473 | KGSEGYLAATY [NF1_Y2503] | 0.377 | 0.627 | 0.355 | 0.457 | 0.372 | 0.484 | 0.654 | 0.46 | 0.494 | 0.471 | 0.723 | 0.365 | 0.46
23 | 0.767 | 0.566 | 0.567 | IPTPAYQSSPA [PDCD6IP_Y727] | 0.377 | 0.541 | 0.356 | 0.373 | 0.452 | 0.369 | 0.489 | 0.406 | 0.422 | 0.504 | 0.674 | 0.364 | 0.38
24 | 0.724 | 0.81 | 0.412 | PESILYRKFTT [NTRK1_Y701] | 0.627 | 1.14 | 0.542 | 0.818 | 0.668 | 0.632 | 1.14 | 0.377 | 0.73 | 0.732 | 0.9 | 0.52 | 0.538
25 | 0.826 | 0.567 | 0.448 | RTLSEYARRHV [RERE_Y1259_P1262R] | 0.393 | 0.596 | 0.572 | 0.404 | 0.353 | 0.446 | 0.613 | 0.338 | 0.494 | 2.14 | 0.629 | 0.373 | 0.461
26 | 0.763 | 0.927 | 0.603 | VAVVQYSGMGQ [COL6A1_Y878_T881M] | 0.44 | 0.612 | 0.524 | 0.407 | 0.382 | 0.451 | 0.554 | 0.439 | 0.506 | 0.62 | 0.757 | 0.363 | 0.416
27 | 0.94 | 0.77 | 0.742 | FKEQGYHRLPP [RIN1_Y681_YF] | 0.58 | 0.877 | 0.377 | 0.363 | 0.561 | 0.37 | 0.441 | 0.457 | 0.528 | 0.345 | 0.679 | 0.298 | 0.456
28 | 0.816 | 0.602 | 0.436 | EEGENYQKGER [CHGB_Y173] | 0.509 | 0.963 | 0.425 | 0.518 | 0.53 | 0.463 | 0.921 | 0.518 | 0.731 | 0.797 | 1.15 | 0.571 | 0.467
29 | 1.08 | 37.2 | 7.83 | FSLIHYASIVD [MYH7_Y582_G584S] | 0.479 | 1.13 | 0.475 | 0.714 | 0.83 | 0.442 | 1.07 | 0.488 | 1.01 | 0.847 | 1.29 | 0.692 | 0.575
30 | 0.968 | 0.656 | 0.693 | FETNVYVDKNL [PTCHD3_Y688_K685T] | 0.436 | 0.53 | 0.411 | 0.482 | 0.546 | 0.36 | 0.996 | 0.54 | 0.623 | 1.01 | 0.938 | 0.539 | 0.578
31 | 0.736 | 0.623 | 0.376 | GDEVEYMSVSF [GCLC_Y53_L55S] | 1.01 | 1.11 | 0.418 | 0.972 | 0.561 | 1.49 | 1.56 | 1.41 | 1.17 | 0.846 | 1.16 | 0.832 | 1.26
32 | 0.776 | 0.597 | 0.455 | KIMVIYDGACQ [VWDE_Y1035_T1032M] | 0.687 | 1.83 | 0.519 | 0.897 | 1.3 | 0.796 | 1.35 | 0.885 | 1.07 | 0.965 | 1.69 | 1.11 | 1.49
33 | 0.855 | 0.565 | 0.997 | MTRDIYETDFF [INSR_Y1185_YF] | 0.56 | 1.23 | 1.22 | 1.15 | 0.936 | 2.06 | 1.13 | 1.93 | 0.821 | 0.909 | 1.39 | 0.788 | 1.4
